Data on two molecules can be found in publication PMC4260453 (Molecular microbiology, 2011).

This experiment deals with T1, DnaE (Bacillus subtilis, UniProt O34623 1-1115).
T1 sequence: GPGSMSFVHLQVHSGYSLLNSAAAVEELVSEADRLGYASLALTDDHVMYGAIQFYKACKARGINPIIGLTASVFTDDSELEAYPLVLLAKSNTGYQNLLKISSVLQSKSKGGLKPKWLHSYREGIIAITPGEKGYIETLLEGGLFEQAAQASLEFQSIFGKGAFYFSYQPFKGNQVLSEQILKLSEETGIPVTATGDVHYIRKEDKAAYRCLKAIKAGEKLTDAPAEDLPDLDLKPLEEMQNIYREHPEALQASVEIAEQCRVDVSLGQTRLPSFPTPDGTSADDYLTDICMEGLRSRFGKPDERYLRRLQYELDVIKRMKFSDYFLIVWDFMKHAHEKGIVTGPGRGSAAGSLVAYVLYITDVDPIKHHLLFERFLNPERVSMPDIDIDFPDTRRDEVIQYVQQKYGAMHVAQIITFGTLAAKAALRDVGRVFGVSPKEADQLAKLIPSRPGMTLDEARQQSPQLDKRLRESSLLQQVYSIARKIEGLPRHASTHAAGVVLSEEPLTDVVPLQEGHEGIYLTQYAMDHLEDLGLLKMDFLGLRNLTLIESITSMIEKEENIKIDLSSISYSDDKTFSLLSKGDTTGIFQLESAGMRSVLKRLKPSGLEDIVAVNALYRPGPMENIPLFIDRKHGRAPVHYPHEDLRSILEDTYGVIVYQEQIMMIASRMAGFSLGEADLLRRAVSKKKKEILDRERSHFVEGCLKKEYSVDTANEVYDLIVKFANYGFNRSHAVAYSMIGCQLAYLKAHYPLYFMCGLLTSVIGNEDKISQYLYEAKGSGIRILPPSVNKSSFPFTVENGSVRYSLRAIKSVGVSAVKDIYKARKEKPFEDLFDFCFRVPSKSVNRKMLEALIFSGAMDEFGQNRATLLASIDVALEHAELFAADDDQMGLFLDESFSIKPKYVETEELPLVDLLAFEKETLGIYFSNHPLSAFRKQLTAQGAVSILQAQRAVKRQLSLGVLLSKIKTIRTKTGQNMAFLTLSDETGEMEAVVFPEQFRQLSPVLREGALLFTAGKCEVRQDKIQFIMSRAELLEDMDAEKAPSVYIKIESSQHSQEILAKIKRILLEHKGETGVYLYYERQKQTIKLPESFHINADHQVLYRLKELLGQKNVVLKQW
Briefly: far-Western, overlay or dot blot.

B1: MutS (natural protein, Bacillus subtilis)
chain: GPGSMAGYTPMIQQYLKIKAEHQDAFLFFRLGDFYEMFFEDAKKASQELEITLTSRDGGAAEKIPMCGVPYHSASAYIEQLIKKGYKVAICEQTEDPKAAKGVVKREVVQLITPGTVMDGKGIHESENNFIASVSACSNGYGLALSDLTTGENLAVLIERLEDVISEIYSVGAREIVVSGSLDADTVAQLRERCGATISIEDGETDEHVTIIEHLNNEDITKTFLRLYTYLKRTQKRSLDHLQPVQVYELEEAMKIDLYSKRNLELTETIRSKNKKGSLLWLLDETKTAMGGRLLKQWIDRPLIRVNQIEERQEMVETLMSHFFEREDLRERLKEVYDLERLAGRVAFGNVNARDLIQLKESLKQVPGIKQLVASLAHDKAKERAKRIDPCGDVLELLEEALYENPPLSVKEGNLIKDGYNQKLDEYRDASRNGKDWIARLEQQEREYTGIRSLKVGFNKVFGYYIEVTKANLHLLEEGRYERKQTLTNAERYITPELKEKEALILEAENNICELEYELFTELREKVKQYIPRLQQLAKQMSELDALQCFATISENRHYTKPEFSKDEVEVIEGRHPVVEKVMDSQEYVPNNCMMGDNRQMLLITGPNMSGKSTYMRQIALISIMAQIGCFVPAKKAVLPIFDQIFTRIGAADDLISGQSTFMVEMLEAKNAIVNATKNSLILFDEIGRGTSTYDGMALAQAIIEYVHDHIGAKTLFSTHYHELTVLEDKLPQLKNVHVRAEEYNGTVVFLHQIKEGAADKSYGIHVAQLAELPGDLIARAQDILKELEHSGNKPEVPVQKPQVKEEPAQLSFFDEAEKPAETPKLSKKEKQVIDAFKSLNILDMTPLEAMNEMYKLQKKLH
B1: the binding result is listed as “binds”.

B2: His6-SSB (natural protein, Bacillus subtilis, UniProt P37455 1-172, looked up)
chain: MLNRVVLVGRLTKDPELRYTPNGAAVATFTLAVNRTFTNQSGEREADFINCVTWRRQAENVANFLKKGSLAGVDGRLQTRNYENQQGQRVFVTEVQAESVQFLEPKNGGGSGSGGYNEGNSGGGQYFGGGQNDNPFGGNQNNQRRNQGNSFNDDPFANDGKPIDISDDDLPF
B2: the binding result is “binds”.
